System: MS2 coat protein
Experiment: apparent KD of MS2 coat protein; designed switch direction (-1 OFF switch, 1 ON switch): -1; higher = weaker reporter binding
Method in brief: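 The reported apparent KD is a per-design median over clusters, from curve fits of normalised cluster fluorescence. Protein titrations used SNAP-549-labelled MS2 coat protein, doubled from 0.7 or 1.5 nM to 3 µM, in Tris-HCl pH 7.5 buffer with KCl, MgCl2, BSA, DTT, tRNA and Tween-20, with no input, 200 uM small-molecule ligand, or an oligonucleotide input. The RNA switches were transcribed on Illumina chips by stalled E. coli RNA polymerase.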

[1] = input ligand: microRNA oligo, concentration not stated
[2] = Eterna round: R95, input ligand: microRNA oligo, concentration not stated
[3] = Eterna round: R95, input ligand: FMN 200 uM
[4] = Eterna round: R95, input ligand: none

Sequence	apparent KD of MS2 coat protein (input ligand: FMN 200 uM) [nM]	apparent KD of MS2 coat protein [1] [nM]	apparent KD of MS2 coat protein (input ligand: none) [nM]	apparent KD of MS2 coat protein [2] [nM]	apparent KD of MS2 coat protein [3] [nM]	apparent KD of MS2 coat protein [4] [nM]
CAGUACUGAGGAUAUACAUGAGGAUCACCCAUGUCUUAAAAGUAGGAUACUACUAUUAGUAGAAGGCAGUACUG [Fiskers Ex 3 828 mod 24] (Eterna round: R96, puzzle: Exclusion 3)	38.5	12.3	17	–	–	–
CAGUACUGAGGAUAUACAUGAGGAUCACCCAUGUCUUAAAAGUAGGAUACUACUAUUAGUAGAAGGCAGUACUG [Fiskers Ex 3 828 mod 24] (puzzle: Exclusion 3)	–	–	–	12.6	–	–
CAGUACUGAGGAUAUACAUGAGGAUCACCCAUGUGAAAAAGCUACGAAAGUAGCAAAUGUAGAAGGCAGUACUG [Ex3: 806] (Eterna round: R96, puzzle: Exclusion 3)	–	29.9	–	–	–	–
CAGUACUGAGGAUAUACAUGAGGAUCACCCAUGUGAUCUGGUGCACGCGUACGUGUACGUAGAAGGCAGUACUG [JL 3.27 m4] (Eterna round: R97, puzzle: Exclusion 3)	1280	–	121	–	–	–
CAGUACUGAGGAUAUACAUGAGGAUCACCCAUGUGUCCCUGCUAGGAAACUAGCAAAAGUAGAAGGCAGUACUG [Fiskers Ex 3 828 mod 3] (puzzle: Exclusion 3)	–	–	–	21.3	298	21.2
CAGUACUGAGGAUAUACAUGAGGAUCACCCAUGUGUCCUAGCUAGGAUACUAGCAUUAGUAGAAGGCAGUACUG [Fiskers Ex 3 828 mod 7] (puzzle: Exclusion 3)	–	–	–	19.8	–	–
CAGUACUGAGGAUAUACAUGAGGAUCACCCAUGUGUCUAAAGUAGGAUACUACUAUUAGUAGAAGGCAGUACUG [Fiskers Ex 3 828 mod 20] (puzzle: Exclusion 3)	–	–	–	11.3	–	–
CAGUACUGAGGAUAUACAUGAGGAUCACCCAUGUGUUCCAGCUAGGAGACUAGCAUAUGUAGAAGGCAGUACUG [jl-ex3-4.03 salish99 mod] (Eterna round: R97, puzzle: Exclusion 3)	338	–	326	–	–	–
CAGUACUGAGGAUAUACAUGAGGAUCACCCAUGUUCCAAGGCUAGGAAACUAGCAAAAGUAGAAGGCAGUACUG [828 mod 2 m3] (Eterna round: R97, puzzle: Exclusion 3)	472	–	24.5	–	–	–
CAGUAGGCAGGAUAUACAUGAGGAUCACCCAUGUGAUUUAGUGCACGCGUACGUGUACGUAGAAGGGCCUACUG [JL 3.27 m7] (Eterna round: R97, puzzle: Exclusion 3)	91.8	–	17.9	–	–	–
CAUACACAUGAGGAUCACCCAUGUGAGGAUAUGCGUACGUUGUCAGUAGGCGACGUGCGCAGAAGGCGCGUGUU [Mat - Mod of JL D90] (puzzle: Exclusion 1)	–	–	–	46.3	–	–
CAUACACAUGAGGAUCACCCAUGUGAGGAUAUGCGUACGUUGUCCGUAGGCGACGUGCGCAGAAGGCGCAAGGU [JL-ex1-3.17 Eli mod] (puzzle: Exclusion 1)	–	–	–	50.4	–	–
CAUACAGUAGUUAGGAUAUUGCAACGUAUACGGAUCGAGAAGGGACAUGAGGAUCACCCAUGUAGAUUGUAAAG [EX-4 Malc #9] (puzzle: Brourd's mod of Exclusion 4)	–	–	–	34	–	–
CAUACUCAAGUCAGGAUAUAGACUCGGAUACGGAUCUAGAAGGGACAUGAGGAUCACCCAUGUAGAGAGUAAAG [EX-4 Malc #26] (puzzle: Brourd's mod of Exclusion 4)	–	–	–	28.1	60.9	25
CAUACUCAAGUGAGGAUAUUGUCUCGGAUACGAAACAAGAAGGCACAUGAGGAUCACCCAUGUAGAGAGUAAAG [EX-4 Malc #30] (puzzle: Brourd's mod of Exclusion 4)	–	–	–	25.1	136	25.6
CAUGAGGUAGGAUAUACGAUAAUAUAGGGUAGAUAUAUAACACAUGAGGAUCACCCAUGUAGAAGGACCAGUAG [Mat - Exclusion 2 - Mod of my Tesla design - D67] (puzzle: Exclusion 2)	–	–	–	29.8	–	–
CAUGAUCUUCGGAUCAUGGACAUGAGGAUCACCCAUGUCACGAGCAGAUCUUCAUGCAAGCUUUUUGCUCGUCUUAU [Sensor v3 - Turn-off variant 1 - 38] (puzzle: Sensor v3, turn-off variant 1)	–	–	–	405	28	29.8
CAUGAUCUUCGGAUCAUGUACAUGAGGAUCACCCAUGUGACGAGUUUAUGGGUGAACAAGCUUUUUGCUCGUCUUAU [Sensor v3 - Turn-off variant 1 - 6] (puzzle: Sensor v3, turn-off variant 1)	–	–	–	11.2	60	68.9
CAUGAUCUUCGGAUCAUGUACAUGAGGAUCACCCAUGUUACGAGCAGAUUUUCAUACAAGCUUUUUGCUCGUCUUAU [Sensor v3 - Turn-off variant 1 - 31] (puzzle: Sensor v3, turn-off variant 1)	–	–	–	67.3	27.6	28.7
CAUGAUUGACGAGGAUAUUGUUCUACAUCACGACGAGAAGGCGUCUGUCACAUGAGGAUCACCCAUGUGAGUCUGGUGAAUGAG [Ex NG1 #82] (Eterna round: R96, puzzle: Exclusion NG 1)	31	17.2	21.8	–	–	–
CAUGGCUACUAGGAUAUGUCGCGAUGGACGCAAACAGAAGGAGUAACAUGAGGAUCACCCAUGUUGUGACCUAA [Mabiaris] (Eterna round: R97, puzzle: Exclusion 6)	200	–	28.9	–	–	–
CAUUACUGCAGGCUUCGGGACAUGAGGAUCACCCAUGUUCGUCUUAUUGAUCUAGGUACGCUGACGUACCUAGAUCU [JL-sv1-2.25 Brourd mod] (puzzle: Sensor v3, turn-off variant 1)	–	–	–	16.1	17.3	15.6
CAUUAUUAUCGAGGAUAUCCUAUUGUAAUUCUGGGAGAAGGCGGACUCAACAUGAGGAUCACCCAUGUAAGACGGGUACUAGAG [Ex NG1 #23] (Eterna round: R96, puzzle: Exclusion NG 1)	85.1	49.3	74.8	–	–	–
CAUUCCGAGCGAGGAUAUCAGUAAAAGGGAAGCUGAGAAGGCGCAAACAUGAGGAUCACCCAUGUCACACGCGGGUAGUUUUCC [Ditiso] (Eterna round: R96, puzzle: Exclusion NG 1)	13.9	9.74	14.3	–	–	–
CAUUCGCAAGGAUAUUAUUGCAGUGACAUGAGGAUCACCCAUGUGUUCGUCAUGCAUCGAUGAGAAGGUGCAAGAC [Orater] (puzzle: Exclusion 5)	–	–	–	36.4	29.9	41.2
CAUUGUUAUCGAGGAUAUCGUAUUGAGAUUCUACGAGAAGGCGGACUAAACAUGAGGAUCACCCAUGUGAGACGGAUGCUUGGG [Ex NG1 #32] (Eterna round: R96, puzzle: Exclusion NG 1)	36.7	22.3	25.7	–	–	–
